Measurements taken from publication PMC10418980, “Synthesis and Evaluation of ^177Lu-DOTA-PD-L1-i and ^225Ac-HEHA-PD-L1-i as Potential Radiopharmaceuticals for Tumor Microenvironment-Targeted Radiotherapy” (International Journal of Molecular Sciences, 2023).

How the values were obtained:
[1] = Serum stability by radio-HPLC; format: in vitro ADME, human
Description: The radiochemical purity of the radioconjugates was determined by reversed-phase HPLC (Waters) with radiometric and UV-vis detectors. The analysis was carried out with a Discovery C18 column (particle size: 5 µm, length: 25 cm, diameter: 4.6 mm). A linear gradient (rate flow: 1 mL/min) of CH3CN-0.1% TFA (B)/H2O-0.1%TFA (A), from 100% to 10% of A in 30 min, was used. For ^225Ac-HEHA-PD-L1-i, fractions of 1.0 mL were collected, and the activity was evaluated in a NaI(Tl) detector (Auto In-v-tron 4010; NML Inc., Houston, TX, USA).
The ^225Ac-HEHA-PD-L1-i and ^177Lu-DOTA-PD-L1-i stability was evaluated in the medium they were obtained after labeling (water/ascorbic acid/sodium acetate) at 0.33, 3, 24, 48, and 72 h with radio-HPLC, as previously described. The conjugate solutions were diluted in human serum (5x) for stability assessment. The conjugates (n = 3) were incubated at 37 °C, and samples were taken at 0.33, 3, 24, 48, and 72 h.

[2] = tested on: mice intravenously injected with HCC827 lung cancer cells (PD-L1+); experiment: Biodistribution and biokinetic models in mice with HCC827 lung micrometastases; format: in vivo, Nu/Nu mice; settings: mouse, in vivo
Description: Under an approved protocol (No. 07-2018-2021), all animal procedures followed the ethical regulations for handling laboratory animals (NOM-062-ZOO-1999) and the Institutional Animal Care and Use Committee requirements. Male Nu/Nu (UPEAL, […], I.PN., Mexico City, Mexico) mice aged 6–8 weeks were maintained in a pathogen-free barrier facility. Mice were injected with 3.7 MBq (50 µL) of ^177Lu DOTA-PD-L1-I or 3.7 kBq (50 µL) of ^225Ac-HEHA-PD-L1-i in the tail vein and sacrificed at 0.5, 1, 3, 24, 72, and 96 h (n = 3). The heart, lungs, liver, pancreas, spleen, kidneys, small intestine, brain, and stomach were dissected to be measured in a NaI(Tl) radioactivity detector. The results are expressed as the percentage of injected dose (%ID) per organ. Blood samples were also extracted, and the activity was recorded as %ID/g. A second group of mice was inoculated intravenously with 1 × 10^6 HCC827 cells. The animals were treated with 3.7 MBq (50 µL) of ^177Lu DOTA-PD-L1-i (n = 3) or 3.7 kBq (50 µL) of ^225Ac-HEHA-PD-L1-i (n = 3) via tail vein injection on day five post-tumor cell inoculation. The animals were dissected as described above. In the case of ^177Lu DOTA-PD-L1-i, radioisotopic/X-ray in vivo/ex vivo images were obtained in a Preclinical Imaging System (Bruker, XTREME). For in vivo imaging, mice were anesthetized with oxygen and 2% isoflurane.
The %ID values were used to obtain the biokinetic models ( qht ). The Ah(t) functions were obtained by decay-correcting the biokinetic models, that is, by adding to the biological constant (λB ) the radioactive constant (λR ), as follows (Equation (1)):(1) At=Be^−(λR+λB)t+Ce^−(λR+λB)t+De^−(λR+λB)t

[3] = tested on: kidney and liver tissues from mice; experiment: Histopathological assessment (H&E); format: in vivo; settings: mouse, in vivo
Description: Healthy lungs, kidneys, liver, and lungs from mice injected i.v. with HCC827 cells were fixed with 4% paraformaldehyde for 24 h at room temperature, embedded in paraffin, and sectioned in 4–5 µm thick sections using a microtome. Paraffin sections of lung samples were deparaffinized in xylene and rehydrated in a series of graded alcohols. Dewaxed tissue sections were stained with hematoxylin and eosin (H&E). The sections were assessed using a light microscope (magnification of 100x) (Zeiss; Mod. Axioscope: Oberkochen, Germany). Images were acquired with a digital camera (5 MP high-speed color; AmScope; Mod.Mu500: Irvine, CA, USA).

[4] = tested on: mice inoculated with HCC827 lung cancer cells; experiment: Creatinine and liver enzyme levels; format: in vivo; settings: mouse, in vivo
Description: Mouse blood samples collected at 96 h after radiopharmaceutical administration were used for the determination of alanine aminotransferase (ALT), creatinine, and aspartate aminotransferase (AST). Creatinine was measured titrimetrically. The picrate method was used. AST and ALT were quantified using a Roche Diagnostics kit for UV assays.

## CCCC[C@H]1C(=O)N(C)[C@@H](CCCC)C(=O)N[C@@H](CCCNC(=S)Nc2ccc(CC3CN(CC(=O)O)CCN(CC(=O)O)CCN(CC(=O)O)CCN(CC(=O)O)CCN(CC(=O)O)CCN3CC(=O)O)cc2)C(=O)N[C@H](C(=O)NCC(N)=O)CSCC(=O)N[C@@H](Cc2ccc(O)cc2)C(=O)N(C)[C@@H](C)C(=O)N[C@@H](CC(N)=O)C(=O)N2CCC[C@H]2C(=O)N[C@@H](Cc2c[nH]cn2)C(=O)N[C@@H](CC(C)C)C(=O)N2C[C@H](O)C[C@H]2C(=O)N[C@@H](Cc2c[nH]c3ccccc23)C(=O)N[C@@H](CO)C(=O)N[C@@H](Cc2cn(C)c3ccccc23)C(=O)N1C (stereo partly drawn) [^225Ac-HEHA-PD-L1-i, metal not drawn]
[1]
  radiochemical purity after 72 h in human serum: 64 ± 4%
  rate of decrease of radiochemical purity in human serum: approximately 0.388 %/h
[2]
  Ac-225 activity present in bone: 0.3 ± 0.2 % ID/g
  biokinetic model A(t), kidney: 12.60e^-3.65t + 8.14e^-2.54t
  biokinetic model A(t), liver: 25.3e^-1.90t + 17.4e^-0.01t
  biokinetic model A(t), lung (HCC827 cancer cells): 11.20e^-0.002t + 1.73e^-1.20t
  half-life, kidney, second component: 16.2 min
  injected dose in kidney eliminated with half-life 0.19 h: 12.6 % of the injected dose
  injected dose in kidney eliminated with half-life 0.27 h: 8.14 % of the injected dose
  injected dose retained in liver and eliminated with the slow half-life: 17.4 % of the injected dose
[2]; iv
  half-life, kidney, fast phase: 11.4 min
  half-life, liver, slow phase: 69.3 h
  uptake in lung micrometastases: > 30 % ID
[3]
  histological staining (H&E) of liver and kidney: no pathologic changes in the liver and kidney
[4]
  effect on the function of liver and kidney: No significant cytotoxic effect
